Data set [1] has as its target T1, YbaBEc (Escherichia coli, UniProt P0A8B5 1-109).
T1 sequence: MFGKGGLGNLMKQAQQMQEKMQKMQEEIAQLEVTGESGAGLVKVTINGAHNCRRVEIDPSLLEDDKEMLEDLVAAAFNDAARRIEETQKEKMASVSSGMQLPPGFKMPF
Put plainly: EMSA; first step, apparent monomer-equivalent; EMSA: 100 pM biotin-DNA, 50 mM Tris-HCl pH 7.5, 1 mM DTT, protease inhibitor 8 ul/ml, phosphatase inhibitor 2 ul/ml, 10% glycerol, no added salt stated, 20 min, room temperature. The conditions noted are these: protein: recombinant; tags: pET200-TOPO vector tag, His-Trap purified; chain copies: 2; label: 5' biotin on strand 1; blunt. (Mobility shift assays separate free from complexed probe on a gel.)

For data set [2], the target named is T2, YbaBHi (Haemophilus influenzae, UniProt P44711 1-109). The data set is described as above. The conditions noted are these: protein: recombinant; tags: pET15b vector tag, His-Trap purified; chain copies: 2; label: 5' biotin on strand 1; blunt.
The target in data set [3] is T2, YbaBHi. As to the kind of experiment: EMSA; first step, n=2.09; EMSA: 100 pM biotin-DNA, 50 mM Tris-HCl pH 7.5, 1 mM DTT, protease inhibitor 8 ul/ml, phosphatase inhibitor 2 ul/ml, 10% glycerol, no added salt stated, 20 min, room temperature. To be noted: protein: recombinant; tags: pET15b vector tag, His-Trap purified; chain copies: 2; label: 5' biotin on strand 1; blunt.

The target in data set [4] is T1, YbaBEc. As to the kind of experiment: EMSA; first step, n=1.93; EMSA: 100 pM biotin-DNA, 50 mM Tris-HCl pH 7.5, 1 mM DTT, protease inhibitor 8 ul/ml, phosphatase inhibitor 2 ul/ml, 10% glycerol, no added salt stated, 20 min, room temperature. The conditions noted are these: protein: recombinant; tags: pET200-TOPO vector tag, His-Trap purified; chain copies: 2; label: 5' biotin on strand 1; blunt.

The target in data set [5] is T1, YbaBEc. As to the kind of experiment: EMSA; no detectable effect of mutation; EMSA: 100 pM biotin-DNA, 50 mM Tris-HCl pH 7.5, 1 mM DTT, protease inhibitor 8 ul/ml, phosphatase inhibitor 2 ul/ml, 10% glycerol, no added salt stated, 20 min, room temperature. The conditions noted are these: protein: recombinant; tags: pET200-TOPO vector tag, His-Trap purified; chain copies: 2; label: 5' biotin on strand 1; blunt.

The target in data set [6] is T2, YbaBHi. The description is as above. The conditions noted are these: protein: recombinant; tags: pET15b vector tag, His-Trap purified; chain copies: 2; label: 5' biotin on strand 1; blunt.
Data set [7] has as its target T1, YbaBEc. Put plainly: EMSA; protein at half its Kd; EMSA: 100 pM biotin-DNA, 50 mM Tris-HCl pH 7.5, 1 mM DTT, protease inhibitor 8 ul/ml, phosphatase inhibitor 2 ul/ml, 10% glycerol, no added salt stated, 20 min, room temperature. The conditions noted are these: protein: recombinant; tags: pET200-TOPO vector tag, His-Trap purified; chain copies: 2; label: 5' biotin on strand 1; blunt.

Data set [8] has as its target T2, YbaBHi. Described as above. To be noted: protein: recombinant; tags: pET15b vector tag, His-Trap purified; chain copies: 2; label: 5' biotin on strand 1; blunt.
In a further data set the target is T3, EbfC (Borrelia burgdorferi, UniProt O51418 1-99).
T3 sequence: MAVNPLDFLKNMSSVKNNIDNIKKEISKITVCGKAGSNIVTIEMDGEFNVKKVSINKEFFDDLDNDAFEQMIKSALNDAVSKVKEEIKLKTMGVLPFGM
As to the kind of experiment: EMSA; specific plus nonspecific complex; EMSA: 100 pM biotin-DNA, 50 mM Tris-HCl pH 7.5, 1 mM DTT, protease inhibitor 8 ul/ml, phosphatase inhibitor 2 ul/ml, 10% glycerol, no added salt stated, 20 min, room temperature. To be noted: protein: recombinant; tags: His-Trap purified (His tag implied); chain copies: 2; label: 5' biotin on strand 1; blunt.

Data set [9] deals with the molecule itself. As to the kind of experiment: SEC; data not shown; Superdex 75 10/300 GL, 200 mM NaCl, 50 mM Tris-HCl pH 7.5, 1% glycerol; 200 ul of about 0.2 mg/ml YbaBHi; mass from a calibration curve of standards.

Changes are numbered by the printed parent chain.

B1: b-WT (dsDNA)
DNA 1: TTGTAATGAGTAGTGCATTTGCAATGGAGAGATTTTGGGGAGTTGTTTAAAATTACATTTGCGTTTTGTTAAAATGTAACAGCTGAATGTAACAAAATTATATATTTAAATCTTTGAAATATTGC
DNA 2: GCAATATTTCAAAGATTTAAATATATAATTTTGTTACATTCAGCTGTTACATTTTAACAAAACGCAAATGTAATTTTAAACAACTCCCCAAAATCTCTCCATTGCAAATGCACTACTCATTACAA
B1: the Kd was 77 nM in the data set with YbaBEc [1] and 240 nM in the data set with YbaBHi [2]. Also, the figures for the Ka in the data set with YbaBHi [3] and with YbaBEc [4] were 1.7e+13 M-2 and 1.7e+14 M-2, respectively.

B2: b-C40 (dsDNA)
DNA 1: B1 DNA 1 with T75C, G76A, T77C, A91G
DNA 2: B1 DNA 2 with T35C, A49G, C50T, A51G
Turning to B2, the binding result in the data set with YbaBEc [5] and in the data set with YbaBHi [6] was “binds” throughout.

B3: b-C50 (dsDNA)
DNA 1: B1 DNA 1 with T75C, G76A, T77C, A92T
DNA 2: B1 DNA 2 with T34A, A49G, C50T, A51G
Take B3: the binding result with YbaBEc [5] and with YbaBHi [6] was “binds” throughout.

B4: b-C20 (dsDNA)
DNA 1: B1 DNA 1 with T75C, G76A, T77C, C93A
DNA 2: B1 DNA 2 with G33T, A49G, C50T, A51G
For the molecule B4, the binding result in the data set with YbaBEc [5] and with YbaBHi [6] was “binds” each time.

B5: b-C30 (dsDNA)
DNA 1: B1 DNA 1 with T75C, G76A, T77C, A94T
DNA 2: B1 DNA 2 with T32A, A49G, C50T, A51G
With B5, the binding result in the data set with YbaBEc [5] and in the data set with YbaBHi [6] was “binds” throughout.

B6: b-C2 (dsDNA)
DNA 1: B1 DNA 1 with T75C, G76A, T77C
DNA 2: B1 DNA 2 with A49G, C50T, A51G
With B6, the binding result in the data set with YbaBEc [7], with YbaBHi [8] and with EbfC was “binds” each time.

B7: Haemophilus influenzae YbaB (natural protein, H. influenzae, UniProt P44711 1-109, looked up)
chain: MFGKGGLGGLMKQAQQMQEKMQKMQEEIAQLEVTGESGAGLVKITINGAHNCRRIDIDPSLMEDDKEMLEDLIAAAFNDAVRRAEELQKEKMASVTAGMPLPPGMKFPF
notes: Purified on a His-Trap column; removal of the tag is not mentioned; also called YbaBHi; HI0442; source: E. coli Rosetta pLysS, purified (His-Trap HP)
As usually defined, the stoichiometry N is the number of molecules, sites or subunits per partner or assembly. As to B7, in [9], the “stoichiometry N” value amounted to 2.

For the origin of these results see article PMC2720974, “DNA-binding by Haemophilus influenzae and Escherichia coli YbaB, members of a widely-distributed bacterial protein family” (BMC Microbiology, 2009).
